# The RNAGym collection of RNA variant scans (doi:10.7554/elife.80360)
# B1: Hammerhead Ribozyme (parent)
# chain: ACCGGAUGUGCUUUCCGGUCUGAUGAGUCCGUGAGGACGAAACAG
# Variants of: B1
# Assay: self-cleavage, relative activity (ratio to wild type); higher = more cleavage; co-transcriptional
row,Variant,self-cleavage
1,ACCGGAUGAGAUUUCCGGUCUGAUGAGUCCGUGAGGACGAAACAG,1.19
2,ACCGGAUGAGGUUUCCGGUCUGAUGAGUCCGUGAGGACGAAACAG,1.57
3,ACCGGAUGAGUUUUCCGGUCUGAUGAGUCCGUGAGGACGAAACAG,0.572
4,ACCGGAUGAGCUUUACGGUCUGAUGAGUCCGUGAGGACGAAACAG,0.699
5,ACCGGAUGAGCUUUGCGGUCUGAUGAGUCCGUGAGGACGAAACAG,0.758
6,ACCGGAUGAGCUUUUCGGUCUGAUGAGUCCGUGAGGACGAAACAG,0.848
7,ACCGGAUGAGCUUUCAGGUCUGAUGAGUCCGUGAGGACGAAACAG,1.15
8,ACCGGAUGAGCUUUCGGGUCUGAUGAGUCCGUGAGGACGAAACAG,0.742
9,ACCGGAUGAGCUUUCUGGUCUGAUGAGUCCGUGAGGACGAAACAG,1.11
10,ACCGGAUGAGCUUUCCGGUAUGAUGAGUCCGUGAGGACGAAACAG,0.438
11,ACCGGAUGAGCUUUCCGGUGUGAUGAGUCCGUGAGGACGAAACAG,0.422
12,ACCGGAUGAGCUUUCCGGUUUGAUGAGUCCGUGAGGACGAAACAG,0.557
13,ACCGGAUGAGCUUUCCGGUCUGAUGAGUACGUGAGGACGAAACAG,0.49
14,ACCGGAUGAGCUUUCCGGUCUGAUGAGUGCGUGAGGACGAAACAG,0.602
15,ACCGGAUGAGCUUUCCGGUCUGAUGAGUUCGUGAGGACGAAACAG,0.829
16,ACCGGAUGAGCUUUCCGGUCUGAUGAGUCAGUGAGGACGAAACAG,1
17,ACCGGAUGAGCUUUCCGGUCUGAUGAGUCGGUGAGGACGAAACAG,0.774
18,ACCGGAUGAGCUUUCCGGUCUGAUGAGUCUGUGAGGACGAAACAG,1.07
19,ACCGGAUGAGCUUUCCGGUCUGAUGAGUCCGUGAGGAAGAAACAG,0.755

row,Variant,self-cleavage
1,ACCGGAUGAGCUUUCCGGUCUGAUGAGUCCGUGAGGAGGAAACAG,0.682
2,ACCGGAUGAGCUUUCCGGUCUGAUGAGUCCGUGAGGAUGAAACAG,1.23
3,ACCGGAUGAGCUUUCCGGUCUGAUGAGUCCGUGAGGACGAAAAAG,0.333
4,ACCGGAUGAGCUUUCCGGUCUGAUGAGUCCGUGAGGACGAAAGAG,0.458
5,ACCGGAUGAGCUUUCCGGUCUGAUGAGUCCGUGAGGACGAAAUAG,0.337
6,ACCGGAUGAACUUUCCGGUCUGAUGAGUCCGUGAGGACGAAACAG,1.38
7,ACCGGAUGACCUUUCCGGUCUGAUGAGUCCGUGAGGACGAAACAG,1
8,ACCGGAUGAUCUUUCCGGUCUGAUGAGUCCGUGAGGACGAAACAG,1.07
9,ACCGGAUGAGCUUUCCAGUCUGAUGAGUCCGUGAGGACGAAACAG,0.539
10,ACCGGAUGAGCUUUCCCGUCUGAUGAGUCCGUGAGGACGAAACAG,0.449
11,ACCGGAUGAGCUUUCCUGUCUGAUGAGUCCGUGAGGACGAAACAG,0.565
12,ACCGGAUGAGCUUUCCGAUCUGAUGAGUCCGUGAGGACGAAACAG,0.497
13,ACCGGAUGAGCUUUCCGCUCUGAUGAGUCCGUGAGGACGAAACAG,0.39
14,ACCGGAUGAGCUUUCCGUUCUGAUGAGUCCGUGAGGACGAAACAG,0.546
15,ACCGGAUGAGCUUUCCGGUCUAAUGAGUCCGUGAGGACGAAACAG,0.282
16,ACCGGAUGAGCUUUCCGGUCUCAUGAGUCCGUGAGGACGAAACAG,0.359
17,ACCGGAUGAGCUUUCCGGUCUUAUGAGUCCGUGAGGACGAAACAG,0.311
18,ACCGGAUGAGCUUUCCGGUCUGAUAAGUCCGUGAGGACGAAACAG,0.345
19,ACCGGAUGAGCUUUCCGGUCUGAUCAGUCCGUGAGGACGAAACAG,0.311

row,Variant,self-cleavage
1,ACCGGAUGAGCUUUCCGGUCUGAUUAGUCCGUGAGGACGAAACAG,0.342
2,ACCGGAUGAGCUUUCCGGUCUGAUGAAUCCGUGAGGACGAAACAG,0.841
3,ACCGGAUGAGCUUUCCGGUCUGAUGACUCCGUGAGGACGAAACAG,0.609
4,ACCGGAUGAGCUUUCCGGUCUGAUGAUUCCGUGAGGACGAAACAG,0.585
5,ACCGGAUGAGCUUUCCGGUCUGAUGAGUCCAUGAGGACGAAACAG,0.825
6,ACCGGAUGAGCUUUCCGGUCUGAUGAGUCCCUGAGGACGAAACAG,1.18
7,ACCGGAUGAGCUUUCCGGUCUGAUGAGUCCUUGAGGACGAAACAG,1.3
8,ACCGGAUGAGCUUUCCGGUCUGAUGAGUCCGUAAGGACGAAACAG,0.92
9,ACCGGAUGAGCUUUCCGGUCUGAUGAGUCCGUCAGGACGAAACAG,0.808
10,ACCGGAUGAGCUUUCCGGUCUGAUGAGUCCGUUAGGACGAAACAG,0.908
11,ACCGGAUGAGCUUUCCGGUCUGAUGAGUCCGUGAAGACGAAACAG,0.751
12,ACCGGAUGAGCUUUCCGGUCUGAUGAGUCCGUGACGACGAAACAG,1.05
13,ACCGGAUGAGCUUUCCGGUCUGAUGAGUCCGUGAUGACGAAACAG,0.435
14,ACCGGAUGAGCUUUCCGGUCUGAUGAGUCCGUGAGAACGAAACAG,0.621
15,ACCGGAUGAGCUUUCCGGUCUGAUGAGUCCGUGAGCACGAAACAG,0.573
16,ACCGGAUGAGCUUUCCGGUCUGAUGAGUCCGUGAGUACGAAACAG,0.505
17,ACCGGAUGAGCUUUCCGGUCUGAUGAGUCCGUGAGGACAAAACAG,0.307
18,ACCGGAUGAGCUUUCCGGUCUGAUGAGUCCGUGAGGACCAAACAG,0.288
19,ACCGGAUGAGCUUUCCGGUCUGAUGAGUCCGUGAGGACUAAACAG,0.422
